Tests used:
[1] = molecular target: Collagen I (triple helix of two α1 chains and one α2 chain) (UniProt P02454); assay: AFM adhesion force
[2] = molecular target: Collagen I (triple helix of two α1 chains and one α2 chain) (UniProt P02454); assay: SPR

Sequence of Collagen I (triple helix of two α1 chains and one α2 chain) (P02454 152-1207, chain 1 of 2): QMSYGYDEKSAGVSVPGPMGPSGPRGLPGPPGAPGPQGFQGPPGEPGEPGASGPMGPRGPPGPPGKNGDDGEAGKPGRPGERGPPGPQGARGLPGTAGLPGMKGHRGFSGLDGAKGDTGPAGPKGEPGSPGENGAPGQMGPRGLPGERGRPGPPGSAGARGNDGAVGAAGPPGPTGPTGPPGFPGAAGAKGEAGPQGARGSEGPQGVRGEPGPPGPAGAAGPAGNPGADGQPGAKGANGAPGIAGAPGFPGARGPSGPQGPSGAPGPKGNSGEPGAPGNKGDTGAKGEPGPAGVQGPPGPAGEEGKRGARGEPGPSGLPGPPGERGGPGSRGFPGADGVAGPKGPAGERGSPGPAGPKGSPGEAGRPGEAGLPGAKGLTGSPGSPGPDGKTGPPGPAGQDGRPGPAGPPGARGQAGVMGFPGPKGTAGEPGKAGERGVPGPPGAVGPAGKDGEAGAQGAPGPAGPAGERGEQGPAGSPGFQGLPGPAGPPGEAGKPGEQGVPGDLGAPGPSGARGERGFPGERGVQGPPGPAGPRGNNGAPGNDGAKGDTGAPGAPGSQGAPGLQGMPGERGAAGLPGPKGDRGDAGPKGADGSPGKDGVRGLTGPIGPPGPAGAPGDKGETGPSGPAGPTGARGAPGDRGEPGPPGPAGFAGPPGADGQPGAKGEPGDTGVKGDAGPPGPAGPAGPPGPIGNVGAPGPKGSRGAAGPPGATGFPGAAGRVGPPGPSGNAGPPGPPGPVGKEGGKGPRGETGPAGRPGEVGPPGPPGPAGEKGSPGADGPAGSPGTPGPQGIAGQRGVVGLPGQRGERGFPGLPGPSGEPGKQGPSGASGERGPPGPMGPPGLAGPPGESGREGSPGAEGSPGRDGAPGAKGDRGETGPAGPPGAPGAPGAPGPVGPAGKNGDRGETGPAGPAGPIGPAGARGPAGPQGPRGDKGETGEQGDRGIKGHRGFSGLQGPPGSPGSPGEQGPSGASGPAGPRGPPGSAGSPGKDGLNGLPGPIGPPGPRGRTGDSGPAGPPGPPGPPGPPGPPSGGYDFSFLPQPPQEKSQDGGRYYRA
Sequence of Collagen I (triple helix of two α1 chains and one α2 chain) (P02466 86-1125, chain 2 of 2, further chain): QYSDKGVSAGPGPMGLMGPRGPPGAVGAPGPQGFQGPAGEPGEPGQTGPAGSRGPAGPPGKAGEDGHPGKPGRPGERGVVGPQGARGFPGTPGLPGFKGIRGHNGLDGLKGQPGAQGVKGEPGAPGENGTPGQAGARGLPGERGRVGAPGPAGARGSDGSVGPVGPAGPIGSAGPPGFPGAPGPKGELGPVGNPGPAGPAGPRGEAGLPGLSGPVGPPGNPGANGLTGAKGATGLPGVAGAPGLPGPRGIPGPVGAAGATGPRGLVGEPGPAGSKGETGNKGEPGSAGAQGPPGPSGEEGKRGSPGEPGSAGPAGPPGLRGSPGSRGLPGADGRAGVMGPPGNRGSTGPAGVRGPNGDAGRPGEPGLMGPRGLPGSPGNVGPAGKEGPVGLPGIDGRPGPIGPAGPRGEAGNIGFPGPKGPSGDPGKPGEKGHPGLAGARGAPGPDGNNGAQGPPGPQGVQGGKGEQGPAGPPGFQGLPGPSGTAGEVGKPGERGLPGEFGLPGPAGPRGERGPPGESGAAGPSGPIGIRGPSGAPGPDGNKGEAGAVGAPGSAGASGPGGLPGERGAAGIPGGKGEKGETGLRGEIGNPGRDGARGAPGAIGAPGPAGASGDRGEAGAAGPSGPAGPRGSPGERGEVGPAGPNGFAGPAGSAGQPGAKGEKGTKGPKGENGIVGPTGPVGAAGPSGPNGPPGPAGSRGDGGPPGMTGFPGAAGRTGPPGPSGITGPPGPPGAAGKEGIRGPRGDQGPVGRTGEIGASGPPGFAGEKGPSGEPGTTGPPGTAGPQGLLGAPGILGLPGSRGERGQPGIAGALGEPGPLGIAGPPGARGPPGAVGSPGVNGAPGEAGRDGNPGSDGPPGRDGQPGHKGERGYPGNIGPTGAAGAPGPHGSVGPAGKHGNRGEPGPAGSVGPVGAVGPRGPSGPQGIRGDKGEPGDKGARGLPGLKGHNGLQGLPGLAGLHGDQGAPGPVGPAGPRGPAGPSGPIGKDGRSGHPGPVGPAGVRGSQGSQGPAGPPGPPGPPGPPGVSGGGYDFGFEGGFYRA

peak force (maximum unbinding force) [1]: 3.5 nN | Kd [2]: 6.27 µM
Substance: Amylin1-37 (human islet amyloid polypeptide), recombinant, monomer (from UniProt P10997 34-70)
